This passage reports response results from publication PMC4498904, “Mutagenesis Study Reveals the Rim of Catalytic Entry Site of HDAC4 and -5 as the Major Binding Surface of SMRT Corepressor” (PLoS ONE, 2015).

The chains are these.
B1: KGC-HDAC4c (C-terminal portion of Kusabira Green protein fused with HDAC4c), wild type [human] / KGN-SRD3c (N-terminal portion of Kusabira Green protein fused with SRD3c) [human] (parent)
chain 1: PRFTTGLVYDTLMLKHQCTCGSSSSHPEHAGRIQSIWSRLQETGLRGKCECIRGRKATLEELQTVHSEAHTLLYGTNPLNRQKLDSKKLLGSLASVFVRLPCGGVGVDSDTIWNEVHSAGAARLAVGCVVELVFKVATGELKNGFAVVRPPGHHAEESTPMGFCYFNSVAVAAKLLQQRLSVSKILIVDWDVHHGNGTQQAFYSDPSVLYMSLHRYDDGNFFPGSGAPDEVGTGPGVGFNVNMAFTGGLDPPMGDAEYLAAFRTVVMPIASEFAPDVVLVSSGFDAVEGHPTPLGGYNLSARCFGYLTKQLMGLAGGRIVLALEGGHDLTAICDASEACVSALLGNELDPLPEKVLQQRPNANAVRSMEKVMEIHSKYWRCLQRTTSTAGRSLIEAQTCENEEAET
chain 2: EGGMSVTQCSKEDGRSSSGPPHETAAPKRTYDMMEGRVGRAISSASIEGLMGRAIPPERHSPHHLKEQHHIRGSITQGIPRSYVEAQEDYLRREAKLLKREGTPPPPPPSRDLTEAYKTQALGPLKLKPAHEGLVATVKEAGRSIHEIPREELRHTPELPLAPRPLKEGSITQGTPLKYDTGASTTGSKKHDVRSLIGSPGRTFPPVHPLDVMADARALERACY
B2: KGC-HDAC5c (C-terminal portion of Kusabira Green protein fused with HDAC5c), wild type [human] / KGN-SRD3c (N-terminal portion of Kusabira Green protein fused with SRD3c) [human] (parent)
chain 1: LFTTGVVYDTFMLKHQCMCGNTHVHPEHAGRIQSIWSRLQETGLLSKCERIRGRKATLDEIQTVHSEYHTLLYGTSPLNRQKLDSKKLLGPISQKMYAVLPCGGIGVDSDTVWNEMHSSSAVRMAVGCLLELAFKVAAGELKNGFAIIRPPGHHAEESTAMGFCFFNSVAITAKLLQQKLNVGKVLIVDWDIHHGNGTQQAFYNDPSVLYISLHRYDNGNFFPGSGAPEEVGGGPGVGYNVNVAWTGGVDPPIGDVEYLTAFRTVVMPIAHEFSPDVVLVSAGFDAVEGHLSPLGGYSVTARCFGHLTRQLMTLAGGRVVLALEGGHDLTAICDASEACVSALLSVELQPLDEAVLQQKPNINAVATLEKVIEIQSKHWSCVQKFAAGLGRSLREAQAGETEEAETVS
chain 2: B1 chain 2

The variants in one assay derive from B1. Nature of the assay: BiFC assay (fluorescence spectrophotometer). To be noted: HEK293 cells, KGN-SRD3c (1 μg) and KGC-HDAC4c mutant (1 μg), 48 hours of transfection, whole cell lysates, parent: 8, read off a plot.
In the case of chain 1 H193L, the response came to 4.3 RFU. chain 1 C20Y: the response turned out to be 4.1 RFU.

In the case of chain 1 C18Y, the response is 5 RFU. On to chain 1 C102Y, for which the response stood at 4.5 RFU.

Variants of B2 are the subject of a further assay. Nature of the assay: BiFC assay (fluorescence spectrophotometer). The settings on record: HEK293 cells, KGN-SRD3c (1 μg) and KGC-HDAC5c mutant (1 μg), 48 hours of transfection, whole cell lysates, parent: 9.3, read off a plot.
On to chain 1 C17W, for which the response was 4.4 RFU. Same read-out and setting: then chain 1 H193R, with 4 RFU; and chain 1 C102Y, with 4.7 RFU.
